Results from patent US20150285801.

Test system: GST-topo I
Sequence (chain, as listed by the source): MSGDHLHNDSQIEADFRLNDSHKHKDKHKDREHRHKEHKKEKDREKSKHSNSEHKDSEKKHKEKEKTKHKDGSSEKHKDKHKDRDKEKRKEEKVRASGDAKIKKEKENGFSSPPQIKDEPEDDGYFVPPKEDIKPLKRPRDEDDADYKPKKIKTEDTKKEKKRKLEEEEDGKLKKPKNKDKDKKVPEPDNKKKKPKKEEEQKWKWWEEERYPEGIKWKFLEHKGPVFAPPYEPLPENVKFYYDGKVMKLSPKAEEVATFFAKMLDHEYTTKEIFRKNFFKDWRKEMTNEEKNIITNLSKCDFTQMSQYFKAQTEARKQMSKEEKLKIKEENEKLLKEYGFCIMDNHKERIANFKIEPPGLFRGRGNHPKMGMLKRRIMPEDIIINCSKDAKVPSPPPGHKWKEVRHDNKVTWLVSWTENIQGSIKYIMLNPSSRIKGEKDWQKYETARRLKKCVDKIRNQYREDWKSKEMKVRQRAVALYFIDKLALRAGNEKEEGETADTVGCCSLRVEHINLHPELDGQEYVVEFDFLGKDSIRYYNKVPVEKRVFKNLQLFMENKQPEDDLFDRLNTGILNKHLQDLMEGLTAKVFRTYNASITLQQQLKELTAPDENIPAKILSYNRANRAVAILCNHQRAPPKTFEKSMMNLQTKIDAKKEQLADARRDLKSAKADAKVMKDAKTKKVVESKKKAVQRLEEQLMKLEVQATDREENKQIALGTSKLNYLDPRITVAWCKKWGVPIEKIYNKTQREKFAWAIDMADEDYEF

## BRCA1/BARD1 (E3)
  in vitro ubiquitination, immunoblot with anti-ubiquitin: topo I is ubiquitinated by BRCA1
